pKd: −log10 of the molar value.
Target: Aedes aegypti membrane-bound alkaline phosphatase (Aa-mALP), 54 kDa His(6)-tagged (Aedes aegypti)
Assay: ELISA; sandwich ELISA; Aa-mALP (2.5 µg) coated on 96-well plates in 50 mM carbonate buffer pH 9.0; ligands at 100, 200, 300 and 400 nM, 37 °C, 2 h; detected with rabbit anti-Cry4Ba antibodies and HRP anti-rabbit IgG; apparent Kd; relative binding with Wt-R203Q set at 100%

Substance: 21 kDa isolated Cry4Ba-DIII fragment (domain or fragment)
- pKd: 6.96

Substance: 65 kDa Cry4Ba-R203Q full-length (trypsin-activated) toxin (natural protein)
- pKd: 7.10

— publication PMC8402544
